Measured values: paper PMC9197078, “The small nonstructural protein NP1 of human bocavirus 1 directly interacts with Ku70 and RPA70 and facilitates viral DNA replication” (PLoS Pathogens, 2022)

B1: MBP-Ku70-β-barrel^His (aa266-439) (domain or fragment, UniProt P12956 266-439, looked up)
chain: DIVISVGIYNLVQKALKPPPIKLYRETNEPVKTKTRTFNTSTGGLLLPSDTKRSQIYGSRQIILEKEETEELKRFDDPGLMLMGFKPLVLLKKHHYLRPSLFVYPEESLVIGSSTLFSALLIKCLEKEVAALCRYTPRRNIPPYFVALVPQEEELDDQKIQVTPPGFQLVFLPF
notes: also called MBP-β-barrel^His; Ku70 β-barrel domain; source: E. coli BL21/DE3 pLysS, purified
B2: glutathione S-transferase (GST)-tagged HBoV1 NP1 (GST-NP1) (natural protein)
chain: MSSGNMKDKHRSYKRKGSPERGERKRHWQTTHHRSRSRSPIRHSGERGSGSYHQEHPISHLSSCTASKTSDQVMKTRESTSGKKDNRTNPYTVFSQHRASNPEAPGWCGFYWHSTRIARDGTNSIFNEMKQQFQQLQIDNKIGWDNTRELLFNQKKTLDQKYRNMFWHFRNNSDCERCNYWDDVYRRHLANVSSQTEADEITDEEMLSAAESMEADASN
notes: also called pGST-NP1; source: E. coli BL21/DE3 pLysS, purified

What was measured:
Assay in all cases: BLI; BLItz; His-tagged protein at different concentrations mounted on Ni-NTA biosensors, dipped into 4 μM GST-NP1 or control GST^Flag; Kinetic buffer 50 mM Tris-HCl pH 7.4, 150 mM NaCl
Details in all cases: both partners purified
[1] = target: B2
RPA70-AB^His (aa181-422) = target: T1, RPA70-AB^His (aa181-422) (UniProt P27694 181-422)
T1 construct: also called middle AB domain; source: E. coli BL21/DE3 pLysS, purified

[2] = target: T2, hexahistidine (His)-tagged Ku70 (Ku70^His) (UniProt P12956 1-609)
T2 construct: also called full length Ku70; Ku70 monomer; source: E. coli BL21/DE3 pLysS, purified

RPA70^His = target: T3, RPA70^His (UniProt P27694 1-616)
T3 construct: source: E. coli BL21/DE3 pLysS, purified
T3 sequence (P27694 whole entry): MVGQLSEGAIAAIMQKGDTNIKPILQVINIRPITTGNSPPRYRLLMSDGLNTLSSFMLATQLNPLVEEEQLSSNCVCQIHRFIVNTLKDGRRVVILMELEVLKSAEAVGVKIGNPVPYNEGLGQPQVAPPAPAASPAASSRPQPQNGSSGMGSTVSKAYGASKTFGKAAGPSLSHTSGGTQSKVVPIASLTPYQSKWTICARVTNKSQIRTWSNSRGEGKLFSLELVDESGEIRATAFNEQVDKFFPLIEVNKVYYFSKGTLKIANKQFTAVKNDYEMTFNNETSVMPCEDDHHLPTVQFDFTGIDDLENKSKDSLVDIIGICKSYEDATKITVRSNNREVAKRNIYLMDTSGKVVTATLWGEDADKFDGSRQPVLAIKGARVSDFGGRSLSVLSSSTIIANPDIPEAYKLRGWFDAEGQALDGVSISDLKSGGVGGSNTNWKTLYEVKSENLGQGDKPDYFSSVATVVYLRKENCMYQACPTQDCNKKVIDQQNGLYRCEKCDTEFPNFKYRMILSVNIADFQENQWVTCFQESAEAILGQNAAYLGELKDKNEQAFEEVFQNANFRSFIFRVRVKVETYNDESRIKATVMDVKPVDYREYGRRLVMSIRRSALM

T2 sequence (P12956 whole entry): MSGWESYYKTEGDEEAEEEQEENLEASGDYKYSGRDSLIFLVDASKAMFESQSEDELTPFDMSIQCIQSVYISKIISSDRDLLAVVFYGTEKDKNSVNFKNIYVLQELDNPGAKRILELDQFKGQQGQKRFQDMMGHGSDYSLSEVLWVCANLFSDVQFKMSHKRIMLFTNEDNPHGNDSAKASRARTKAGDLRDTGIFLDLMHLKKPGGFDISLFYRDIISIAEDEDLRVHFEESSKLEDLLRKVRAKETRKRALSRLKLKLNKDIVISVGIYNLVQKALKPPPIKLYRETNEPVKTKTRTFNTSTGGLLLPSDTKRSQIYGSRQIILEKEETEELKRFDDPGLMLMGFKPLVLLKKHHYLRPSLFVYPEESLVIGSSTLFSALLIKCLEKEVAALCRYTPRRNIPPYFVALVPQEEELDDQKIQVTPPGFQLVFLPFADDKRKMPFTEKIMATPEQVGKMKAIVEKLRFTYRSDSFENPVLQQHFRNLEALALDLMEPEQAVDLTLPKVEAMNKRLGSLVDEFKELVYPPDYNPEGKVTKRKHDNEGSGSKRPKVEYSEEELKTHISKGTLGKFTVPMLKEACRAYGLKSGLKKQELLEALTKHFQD
T1 sequence (P27694 181-422): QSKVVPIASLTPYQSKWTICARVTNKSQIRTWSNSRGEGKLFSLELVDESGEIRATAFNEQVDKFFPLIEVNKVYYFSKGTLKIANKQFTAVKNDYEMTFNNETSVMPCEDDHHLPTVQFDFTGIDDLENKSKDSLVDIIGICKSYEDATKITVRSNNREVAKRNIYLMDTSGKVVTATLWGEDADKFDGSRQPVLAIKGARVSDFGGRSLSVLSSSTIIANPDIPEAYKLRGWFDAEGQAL

With B1 the Kd [1] was 722 nM.

Binder B2 has a Kd (RPA70-AB^His (aa181-422)) of 526 nM, a Kd [2] of 95 nM and a Kd (RPA70^His) of 122 nM.
